Target: erb-b2 receptor tyrosine kinase 2 (HER2) on target cells (Homo sapiens (Human), UniProt P04626 23-1255)
Experiment: cell-based or functional assay

EC50 (molecules/cell), Jurkat NFAT luciferase activation, mRNA titration in HeLa; construct CT1094 (CAR only): 6500 molecules/cell
EC50 (molecules/cell), Jurkat NFAT luciferase activation, mRNA titration in HeLa; construct CT1113 (CT1094 + Murine blocker): 4900 molecules/cell
EC50 (molecules/cell), Jurkat NFAT luciferase activation, mRNA titration in HeLa; construct CT1121 (CT1094 + Human-1 blocker): 4600 molecules/cell
EC50 (molecules/cell), Jurkat NFAT luciferase activation, mRNA titration in HeLa; construct CT1187 (CT1094 + Human-2 blocker): 4500 molecules/cell
B1: HER2 CAR CT1094 (receptor)
chain: QVQLQQSGPELKKPGETVKISCKASGYPFTNYGMNWVKQAPGQGLKWMGWINTSTGESTFADDFKGRFDFSLETSANTAYLQINNLKSEDSATYFCARWEVYHGYVPYWGQGTTVTVSSGGGGSGGGGSGGGGSDIQLTQSHKFLSTSVGDRVSITCKASQDVYNAVAWYQQKPGQSPKLLIYSASSRYTGVPSRFTGSGSGPDFTFTISSVQAEDLAVYFCQQHFRTPFTFGSGTKLEIKAEPKSPDKTHTCPPCPKDPKFWVLVVVGGVLACYSLLVTVAFIIFWVRSKRSRLLHSDYMNMTPRRPGPTRKHYQPYAPPRDFAAYRSRVKFSRSADAPAYKQGQNQLYNELNLGRREEYDVLDKRRGRDPEMGGKPRRKNPQEGLYNELQKDKMAEAYSEIGMKGERRRGKGHDGLYQGLSTATKDTYDALHMQALPPR
